Reference: article PMC11552096 (Journal of molecular biology, 2020)

B1: hsSUN2_(522-717), wild type, as crystallised with KASH4 (domain or fragment, human, UniProt Q9UH99 522-717, looked up)
chain: GVTEEQVHHIVKQALQRYSEDRIGLADYALESGGASVISTRCSETYETKTALLSLFGIPLWYHSQSPRVILQPDVHPGNCWAFQGPQGFAVVRLSARIRPTAVTLEHVPKALSPNSTISSAPKDFAIFGFDEDLQQEGTLLGKFTYDQDGEPIQTFHFQAPTMATYQVVELRILTNWGHPEYTCIYRFRVHGEPAH
B2: hsSUN2_(522-717) with 4 surface point mutations Q534D, T683G, M684R, A685G (domain or fragment, human, UniProt Q9UH99 522-717, looked up)
chain: GVTEEQVHHIVKDALQRYSEDRIGLADYALESGGASVISTRCSETYETKTALLSLFGIPLWYHSQSPRVILQPDVHPGNCWAFQGPQGFAVVRLSARIRPTAVTLEHVPKALSPNSTISSAPKDFAIFGFDEDLQQEGTLLGKFTYDQDGEPIQTFHFQAPGRGTYQVVELRILTNWGHPEYTCIYRFRVHGEPAH
B3: apo-SUN2_(500-717) (domain or fragment, human, UniProt Q9UH99 500-717, looked up)
chain: QGKSAREAAASLSLTLQKEGVIGVTEEQVHHIVKQALQRYSEDRIGLADYALESGGASVISTRCSETYETKTALLSLFGIPLWYHSQSPRVILQPDVHPGNCWAFQGPQGFAVVRLSARIRPTAVTLEHVPKALSPNSTISSAPKDFAIFGFDEDLQQEGTLLGKFTYDQDGEPIQTFHFQAPTMATYQVVELRILTNWGHPEYTCIYRFRVHGEPAH

Target: the molecule itself
Test: crystal structure

Stoichiometry N, 3:
B1
B2
B3
